Here are results for eleven molecules from PMC4835091, “Characterization of the FtsZ C-Terminal Variable (CTV) Region in Z-Ring Assembly and Interaction with the Z-Ring Stabilizer ZapD in E. coli Cytokinesis” (PLoS ONE, 2016).

T1: GAL4 BD-ZapD fusion (E. coli, UniProt P36680 1-247)
T1 construct: ZapD, Z-ring stabilizer of E. coli; also called pDEST-GBKT7-zapD; source: yeast two-hybrid fusion (pDEST-GBKT7-zapD in S. cerevisiae PJ69-4A, diploid after mating)
T1 sequence (looked up): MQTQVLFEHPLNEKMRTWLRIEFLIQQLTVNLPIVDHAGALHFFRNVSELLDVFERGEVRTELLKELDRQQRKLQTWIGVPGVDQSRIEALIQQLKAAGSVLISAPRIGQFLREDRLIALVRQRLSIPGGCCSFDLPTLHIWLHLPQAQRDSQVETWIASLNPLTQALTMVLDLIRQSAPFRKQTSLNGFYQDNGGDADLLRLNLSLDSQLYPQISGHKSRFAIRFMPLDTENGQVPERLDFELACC

B1: GAL4 AD-FtsZ(DQAK) fusion (natural protein, E. coli, UniProt P0A9A6 1-383, looked up)
chain: MFEPMELTNDAVIKVIGVGGGGGNAVEHMVRERIEGVEFFAVNTDAQALRKTAVGQTIQIGSGITKGLGAGANPEVGRNAADEDRDALRAALEGADMVFIAAGMGGGTGTGAAPVVAEVAKDLGILTVAVVTKPFNFEGKKRMAFAEQGITELSKHVDSLITIPNDKLLKVLGRGISLLDAFGAANDVLKGAVQGIAELITRPGLMNVDFADVRTVMSEMGYAMMGSGVASGEDRAEEAAEMAISSPLLEDIDLSGARGVLVNITAGFDLRLDEFETVGNTIRAFASDNATVVIGTSLDPDMNDELRVTVVATGIGMDKRPEITLVTNKQVQQPVMDRYQQHGMAPLTQEQKPVAKVVNDNAPQTAKEPDYLDIPAFLRDQAK
notes: FtsZ of E. coli with the native CTV KQAD replaced by DQAK (net-neutral); source: yeast two-hybrid fusion (pDEST-GADT7-ftsZ(DQAK) in S. cerevisiae SL3004, diploid after mating)
B2: GAL4 AD-FtsZ(QQQQ) fusion (natural protein, E. coli, UniProt P0A9A6 1-383, looked up)
chain: B1 chain with D380Q, A382Q, K383Q
notes: FtsZ of E. coli with the native CTV KQAD replaced by QQQQ (net-neutral); source: yeast two-hybrid fusion (pDEST-GADT7-ftsZ(QQQQ) in S. cerevisiae SL3004, diploid after mating)
B3: GAL4 AD-FtsZ(RQAR) fusion (natural protein, E. coli, UniProt P0A9A6 1-383, looked up)
chain: B1 chain with D380R, K383R
notes: FtsZ of E. coli with the native CTV KQAD replaced by RQAR (net-positive); source: yeast two-hybrid fusion (pDEST-GADT7-ftsZ(RQAR) in S. cerevisiae SL3004, diploid after mating)
B4: GAL4 AD-FtsZ(NRNKRG) fusion (natural protein, E. coli | B. subtilis)
chain: MFEPMELTNDAVIKVIGVGGGGGNAVEHMVRERIEGVEFFAVNTDAQALRKTAVGQTIQIGSGITKGLGAGANPEVGRNAADEDRDALRAALEGADMVFIAAGMGGGTGTGAAPVVAEVAKDLGILTVAVVTKPFNFEGKKRMAFAEQGITELSKHVDSLITIPNDKLLKVLGRGISLLDAFGAANDVLKGAVQGIAELITRPGLMNVDFADVRTVMSEMGYAMMGSGVASGEDRAEEAAEMAISSPLLEDIDLSGARGVLVNITAGFDLRLDEFETVGNTIRAFASDNATVVIGTSLDPDMNDELRVTVVATGIGMDKRPEITLVTNKQVQQPVMDRYQQHGMAPLTQEQKPVAKVVNDNAPQTAKEPDYLDIPAFLRNRNKRG
notes: FtsZ of E. coli up to the CTV; the native CTV KQAD (380-383) is replaced by the next part; also called E. coli FtsZ with the B. subtilis CTV; source: yeast two-hybrid fusion (pDEST-GADT7-ftsZ(NRNKRG) in S. cerevisiae SL3004, diploid after mating)
B5: FtsZ(1-379) (purified) (domain or fragment, E. coli, UniProt P0A9A6 1-379, looked up)
chain: MFEPMELTNDAVIKVIGVGGGGGNAVEHMVRERIEGVEFFAVNTDAQALRKTAVGQTIQIGSGITKGLGAGANPEVGRNAADEDRDALRAALEGADMVFIAAGMGGGTGTGAAPVVAEVAKDLGILTVAVVTKPFNFEGKKRMAFAEQGITELSKHVDSLITIPNDKLLKVLGRGISLLDAFGAANDVLKGAVQGIAELITRPGLMNVDFADVRTVMSEMGYAMMGSGVASGEDRAEEAAEMAISSPLLEDIDLSGARGVLVNITAGFDLRLDEFETVGNTIRAFASDNATVVIGTSLDPDMNDELRVTVVATGIGMDKRPEITLVTNKQVQQPVMDRYQQHGMAPLTQEQKPVAKVVNDNAPQTAKEPDYLDIPAFLR
notes: also called FtsZ lacking the CTV residues; FtsZ without the CTV region; source: E. coli C41(DE3), purified (25% saturated ammonium sulfate cut)
B6: FtsZ(DQAK) (purified) (natural protein, E. coli, UniProt P0A9A6 1-383, looked up)
chain: B1 chain
notes: FtsZ of E. coli with the native CTV KQAD replaced by DQAK (net-neutral); pKHH9, pET-21b(+); also called net-neutral CTV mutant; source: E. coli C41(DE3), purified (25% saturated ammonium sulfate cut)
B7: FtsZ(KQAK) (purified) (natural protein, E. coli, UniProt P0A9A6 1-383, looked up)
chain: B1 chain with D380K
notes: FtsZ of E. coli with the native CTV KQAD replaced by KQAK (net-positive); pKHH8, pET-21b(+); also called net-positive CTV mutant; source: E. coli C41(DE3), purified (25% saturated ammonium sulfate cut)
B8: FtsZ(DQAD) (purified) (natural protein, E. coli, UniProt P0A9A6 1-383, looked up)
chain: B1 chain with K383D
notes: FtsZ of E. coli with the CTV DQAD (net-negative) in place of KQAD; pKHH7, pET-21b(+); also called K380D; net-negative CTV mutant; source: E. coli C41(DE3), purified (20% ammonium sulfate cut)
B9: FtsZ(QQQQ) (purified) (natural protein, E. coli, UniProt P0A9A6 1-383, looked up)
chain: B1 chain with D380Q, A382Q, K383Q
notes: FtsZ of E. coli with the native CTV KQAD replaced by QQQQ (net-neutral); pLT1, pET-21b(+); also called net-neutral CTV mutant; source: E. coli C41(DE3), purified (25% saturated ammonium sulfate cut)
B10: FtsZ(RQAR) (purified) (natural protein, E. coli, UniProt P0A9A6 1-383, looked up)
chain: B1 chain with D380R, K383R
notes: FtsZ of E. coli with the native CTV KQAD replaced by RQAR (net-positive); pAM3, pET-21b(+); also called net-positive CTV mutant; source: E. coli C41(DE3), purified (25% saturated ammonium sulfate cut)
B11: FtsZ(NRNKRG) (purified) (natural protein, E. coli | B. subtilis)
chain: B4 chain
notes: FtsZ of E. coli up to the CTV; the native CTV KQAD (380-383) is replaced by the next part; also called EcftsZCTVB; source: E. coli C41(DE3), purified (25% saturated ammonium sulfate cut)

Substitutions are numbered along the chain they refer to. In names and notes the source's numbering stands.

The first data set has as its target T1, GAL4 BD-ZapD fusion. Description: two-hybrid; GAL4 BD-ZapD with GAL4 AD-FtsZ fusions in diploid yeast grown in YNB (-Leu-Trp) at 30°C; beta-galactosidase activity in Miller units, mean of 10 independent trials. To be noted: partners not purified.
B1: the β-galactosidase activity turned out to be 170 Miller units.

In turn, B2 gave a β-galactosidase activity of 115 Miller units. In turn, B3 displayed a β-galactosidase activity of 155 Miller units. Regarding B4, the β-galactosidase activity is 106 Miller units.

The next data set deals with the molecule itself. Kind of data set: sedimentation of FtsZ polymers; FtsZ or CTV mutant 5 μM alone in 50 mM K-MOPS pH 6.5, 50 mM KCl, 2.5 mM MgCl2, 3 μM BSA, 1 mM GTP, room temperature; TLA100.2, 80,000 rpm, 10 min; percent of FtsZ in the pellet by SDS-PAGE.
Conditions: not given
As for B5, the binding result was “binds”. With B6, the binding result was “binds”.

For the molecule B7, the binding result is on record as “binds”. Regarding B8, the binding result is given as “binds”.

Regarding B9, the binding result is given as “binds”. Still for that read-out and setting: the same measure for B10: “binds”; for B11: “binds”.
